According to paper doi:10.1101/2024.06.06.597810 (bioRxiv, 2024):

B1: S2P6 UCA VH M48I/S56H double mutant Fab (Fab, V domains shown)
VH: QVQLVQSGAEVKKPGASVKVSCKASGYTFTSYYMHWVRQAPGQGLEWIGIINPSGGHTSYAQKFQGRVTMTRDTSTSTVYMELSSLRSEDTAVYYCARGSPKGAFDYWGQGTLVTVSS
VL: not shown
notes: source: Expi293F, co-transfected, purified (IgG-CH1-XL beads)
B2: S2P6 UCA VH Y32Q/M48I/S56H triple mutant Fab (Fab, V domains shown)
VH: QVQLVQSGAEVKKPGASVKVSCKASGYTFTSQYMHWVRQAPGQGLEWIGIINPSGGHTSYAQKFQGRVTMTRDTSTSTVYMELSSLRSEDTAVYYCARGSPKGAFDYWGQGTLVTVSS
VL: not shown
notes: as for B1

Target: T1, Biotin-labeled BatCoV-BtkY72 stem helix peptide (Bat SARS-related coronavirus BtKY72 …, UniProt A0A3Q8AKM0, biotin (position not given))
T1 construct: source: synthetic peptide, bought: GenScript
Test: BLI
Conditions: both partners purified

Row | Binder | binding result
1 | B1 | binds
2 | B2 | binds
